# Results reported in patent US8840891 (RSR, dated 2014).
# Like-named read-outs stand apart in the source and are kept apart here.
# B1: 5C9 IgG (human monoclonal autoantibody to the TSHR) (antibody, from another filing, V domains shown)
# VH: EVQLVESGGGLIQPGGSLRLSCAASGFTVSSNYMSWVRQAPGKGLEWVSVTYSGGSTSYADSVKGRFTISRDNSKNTLYLQMNSLRAEDTAVYYCARGGRYCSSISCYARSGCDYWGQGTLVTVSS
# VL: AIQMTQSPSSLSASVGDRVTITCRASQSISNYLNWYQQKPGKAPKLLIYAASSLQSGVPSRFSGSGSGTDFTLTISSLQPEDFATYYCQQSYSSPSTTFGQGTKLEIK
# Assays:
# Assay in all cases: cell-based or functional assay
# [1] = molecular target: wild type human TSHR (human) (UniProt P16473)
# [2] = molecular target: TSHR with Lys129 mutated to Alanine (human) (UniProt P16473)
# [3] = molecular target: TSHR with Arg80 mutated to Alanine (human) (UniProt P16473)
# [4] = molecular target: wild type human TSHR (human) (UniProt P16473); remark: listed apart in the source
# [5] = molecular target: wild type human TSHR (thyrotropin receptor) expressed on CHO cells (human) (UniProt P16473)
# [6] = molecular target: TSHR with Arg274 mutated to Alanine expressed on CHO cells (human) (UniProt P16473)
molecule,measurement,setting,value
5C9 IgG (antibody),cyclic AMP; 5C9 0.01 µg/mL + TSH (fmol/cell well),[1],10500
same,cyclic AMP; 5C9 0.1 µg/mL + TSH (fmol/cell well),[1],2710
same,cyclic AMP; 5C9 1.0 µg/mL + TSH (fmol/cell well),[1],1010
same,cyclic AMP; 5C9 10 µg/mL + TSH (fmol/cell well),[1],548
same,cyclic AMP; 5C9 100 µg/mL + TSH (fmol/cell well),[1],491
same,cyclic AMP; 5C9 100 µg/mL only (fmol/cell well),[1],107
same,Mutated/wild type (%); 5C9 0.01 µg/mL + TSH,[2],115%
same,Mutated/wild type (%); 5C9 0.1 µg/mL + TSH,[2],488%
same,Mutated/wild type (%); 5C9 1.0 µg/mL + TSH,[2],1270%
same,Mutated/wild type (%); 5C9 10 µg/mL + TSH,[2],2040%
same,Mutated/wild type (%); 5C9 100 µg/mL + TSH,[2],3240%
same,Mutated/wild type (%); 5C9 100 µg/mL only,[2],203%
same,cyclic AMP; 5C9 0.01 µg/mL + TSH (fmol/cell well),[2],12200
same,cyclic AMP; 5C9 0.1 µg/mL + TSH (fmol/cell well),[2],13300
same,cyclic AMP; 5C9 1.0 µg/mL + TSH (fmol/cell well),[2],12800
same,cyclic AMP; 5C9 10 µg/mL + TSH (fmol/cell well),[2],11200
same,cyclic AMP; 5C9 100 µg/mL + TSH (fmol/cell well),[2],15900
same,cyclic AMP; 5C9 100 µg/mL only (fmol/cell well),[2],217
same,Mutated/wild type (%); 5C9 0.01 µg/mL + TSH,[3],99%
same,Mutated/wild type (%); 5C9 0.1 µg/mL + TSH,[3],82%
same,Mutated/wild type (%); 5C9 1.0 µg/mL + TSH,[3],20%
same,Mutated/wild type (%); 5C9 10 µg/mL + TSH,[3],55%
same,Mutated/wild type (%); 5C9 100 µg/mL + TSH,[3],23%
same,Mutated/wild type (%); 5C9 100 µg/mL only,[3],202%
same,cyclic AMP; 5C9 0.01 µg/mL + TSH (fmol/cell well),[3],14300
same,cyclic AMP; 5C9 0.1 µg/mL + TSH (fmol/cell well),[3],9280
same,cyclic AMP; 5C9 1.0 µg/mL + TSH (fmol/cell well),[3],1360
same,cyclic AMP; 5C9 10 µg/mL + TSH (fmol/cell well),[3],1160
same,cyclic AMP; 5C9 100 µg/mL + TSH (fmol/cell well),[3],518
same,cyclic AMP; 5C9 100 µg/mL only (fmol/cell well),[3],494
same,cyclic AMP; 5C9 0.01 µg/mL + TSH (fmol/cell well),[4],14400
same,cyclic AMP; 5C9 0.1 µg/mL + TSH (fmol/cell well),[4],11300
same,cyclic AMP; 5C9 1.0 µg/mL + TSH (fmol/cell well),[4],6700
same,cyclic AMP; 5C9 10 µg/mL + TSH (fmol/cell well),[4],2110
same,cyclic AMP; 5C9 100 µg/mL + TSH (fmol/cell well),[4],2230
same,cyclic AMP; 5C9 100 µg/mL only (fmol/cell well),[4],244
B1,Cyclic AMP produced; 5C9 0.01 µg/mL + TSH (fmol/cell well),[5],16300
same,Cyclic AMP produced; 5C9 0.1 µg/mL + TSH (fmol/cell well),[5],5000
same,Cyclic AMP produced; 5C9 1.0 µg/mL + TSH (fmol/cell well),[5],808
same,Cyclic AMP produced; 5C9 10 µg/mL + TSH (fmol/cell well),[5],684
same,Cyclic AMP produced; 5C9 100 µg/mL + TSH (fmol/cell well),[5],246
same,Cyclic AMP produced; 5C9 100 µg/mL only (fmol/cell well),[5],111
same,Cyclic AMP produced; 5C9 0.01 µg/mL + TSH (fmol/cell well),[6],9560
same,Cyclic AMP produced; 5C9 0.1 µg/mL + TSH (fmol/cell well),[6],1320
same,Cyclic AMP produced; 5C9 1.0 µg/mL + TSH (fmol/cell well),[6],177
same,Cyclic AMP produced; 5C9 10 µg/mL + TSH (fmol/cell well),[6],108
same,Cyclic AMP produced; 5C9 100 µg/mL + TSH (fmol/cell well),[6],17
same,Cyclic AMP produced; 5C9 100 µg/mL only (fmol/cell well),[6],34
same,Mutated/wild type (%); 5C9 0.01 µg/mL + TSH,[6],58%
same,Mutated/wild type (%); 5C9 0.1 µg/mL + TSH,[6],26%
same,Mutated/wild type (%); 5C9 1.0 µg/mL + TSH,[6],22%
same,Mutated/wild type (%); 5C9 10 µg/mL + TSH,[6],16%
same,Mutated/wild type (%); 5C9 100 µg/mL + TSH,[6],7%
same,Mutated/wild type (%); 5C9 100 µg/mL only,[6],31%
